Source: the Immune Epitope Database (IEDB)

Legend:
Assay in all cases: IEDB peptide-MHC binding, purified MHC/competitive/radioactivity; filed as Kd, often an IC50 or EC50 that approximates it; ≥ and ≤ were set here for values at or beyond the usual limits of such assays
HLA-A*03:01 = biological target: HLA-A*03:01
HLA-A*11:01 = biological target: HLA-A*11:01
HLA-A*31:01 = biological target: HLA-A*31:01
HLA-A*33:01 = biological target: HLA-A*33:01
HLA-A*68:01 = biological target: HLA-A*68:01
[1] = source organism: Vaccinia virus WR
[2] = source organism: Dengue virus 4 Philippines/H241/1956
[3] = source organism: SARS coronavirus Tor2
[4] = source organism: Dengue virus 2 Jamaica/1409/1983
[5] = source organism: Mammarenavirus guanaritoense
[6] = source organism: Vaccinia virus
[7] = source organism: Dengue virus 1 Brazil/97-11/1997
[8] = source organism: Dengue virus 1 Nauru/West Pac/1974
[9] = source organism: Dengue virus 3 Martinique/1243/1999

Sequence: LSSIKSKSR
- Kd (HLA-A*03:01; [1]): 3070 nM
- Kd (HLA-A*11:01; [1]): 4160 nM
- Kd (HLA-A*31:01; [1]): 755 nM
- Kd (HLA-A*33:01; [1]): 1570 nM
- Kd (HLA-A*68:01; [1]): 612 nM

Sequence: LMCHATFTTR
- Kd (HLA-A*31:01; [2]): 12.7 nM
- Kd (HLA-A*33:01; [2]): 97.1 nM

Sequence: SVVQKPVDVK
- Kd (HLA-A*03:01; [3]): 61.6 nM
- Kd (HLA-A*11:01; [3]): 53.7 nM
- Kd (HLA-A*31:01; [3]): 7980 nM
- Kd (HLA-A*33:01; [3]): ≥ 67100 nM
- Kd (HLA-A*68:01; [3]): 857 nM

Sequence: TSCSKNEAEK
- Kd (HLA-A*03:01; [1]): 3800 nM
- Kd (HLA-A*11:01; [1]): 165 nM
- Kd (HLA-A*31:01; [1]): 5740 nM
- Kd (HLA-A*33:01; [1]): ≥ 70000 nM
- Kd (HLA-A*68:01; [1]): 385 nM

Sequence: ETCVYNMMGK
- Kd (HLA-A*11:01; [4]): 1170 nM
- Kd (HLA-A*68:01; [4]): 19.1 nM

Sequence: ILNKIVQLPK
- Kd (HLA-A*03:01; [1]): 17.3 nM
- Kd (HLA-A*11:01; [1]): 289 nM
- Kd (HLA-A*31:01; [1]): 2070 nM
- Kd (HLA-A*33:01; [1]): ≥ 70000 nM
- Kd (HLA-A*68:01; [1]): 8300 nM

Sequence: TVHKLTQDEK
- Kd (HLA-A*03:01; [1]): 12300 nM
- Kd (HLA-A*11:01; [1]): 80.5 nM
- Kd (HLA-A*31:01; [1]): ≥ 70000 nM
- Kd (HLA-A*33:01; [1]): ≥ 70000 nM
- Kd (HLA-A*68:01; [1]): 220 nM

Sequence: YSGLTPEQK
- Kd (HLA-A*03:01; [1]): 18800 nM
- Kd (HLA-A*11:01; [1]): 497 nM
- Kd (HLA-A*31:01; [1]): 16200 nM
- Kd (HLA-A*33:01; [1]): ≥ 53000 nM
- Kd (HLA-A*68:01; [1]): 494 nM

Sequence: IQLDEKSSIK
- Kd (HLA-A*03:01; [1]): 1.25 nM
- Kd (HLA-A*11:01; [1]): 4.57 nM
- Kd (HLA-A*31:01; [1]): 81.1 nM
- Kd (HLA-A*33:01; [1]): ≥ 70000 nM
- Kd (HLA-A*68:01; [1]): 551 nM

Sequence: ATTFVTPMLR
- Kd (HLA-A*11:01; [4]): 95.2 nM
- Kd (HLA-A*31:01; [4]): 91.1 nM
- Kd (HLA-A*68:01; [4]): 16.2 nM

Sequence: NSYSLIRLSH
- Kd (HLA-A*03:01; [5]): 9960 nM
- Kd (HLA-A*11:01; [5]): ≥ 24600 nM
- Kd (HLA-A*31:01; [5]): 9770 nM
- Kd (HLA-A*33:01; [5]): 3250 nM
- Kd (HLA-A*68:01; [5]): 10200 nM

Sequence: LTDTIESAK
- Kd (HLA-A*03:01; [1]): 1070 nM
- Kd (HLA-A*11:01; [1]): 125 nM
- Kd (HLA-A*31:01; [1]): 8.11 nM
- Kd (HLA-A*33:01; [1]): 3.04 nM
- Kd (HLA-A*68:01; [1]): 25.7 nM

Sequence: KIIETYLGR
- Kd (HLA-A*03:01; [1]): ≥ 78000 nM
- Kd (HLA-A*11:01; [1]): ≥ 77900 nM
- Kd (HLA-A*31:01; [1]): ≥ 77900 nM
- Kd (HLA-A*33:01; [1]): ≥ 77700 nM
- Kd (HLA-A*68:01; [1]): ≥ 77700 nM

Sequence: QMAGVEVRY
- Kd (HLA-A*03:01; [1]): 49.6 nM
- Kd (HLA-A*11:01; [1]): 2270 nM
- Kd (HLA-A*31:01; [1]): ≥ 31200 nM
- Kd (HLA-A*33:01; [1]): ≥ 20200 nM
- Kd (HLA-A*68:01; [1]): 7430 nM

Sequence: VIDKAKVMGR
- Kd (HLA-A*03:01; [1]): 805 nM
- Kd (HLA-A*11:01; [1]): 488 nM
- Kd (HLA-A*31:01; [1]): 130 nM
- Kd (HLA-A*33:01; [1]): 2650 nM
- Kd (HLA-A*68:01; [1]): 334 nM

Sequence: ALSEAREHLK
- Kd (HLA-A*03:01; [3]): 80.6 nM
- Kd (HLA-A*11:01; [3]): 141 nM
- Kd (HLA-A*31:01; [3]): 5320 nM
- Kd (HLA-A*33:01; [3]): ≥ 70000 nM
- Kd (HLA-A*68:01; [3]): 2960 nM

Sequence: EAVYGNIKHK
- Kd (HLA-A*03:01; [1]): 18700 nM
- Kd (HLA-A*11:01; [1]): 11700 nM
- Kd (HLA-A*31:01; [1]): 13900 nM
- Kd (HLA-A*33:01; [1]): ≥ 70000 nM
- Kd (HLA-A*68:01; [1]): 62.3 nM

Sequence: IAEYIAGLK
- Kd (HLA-A*03:01; [1]): 63.3 nM
- Kd (HLA-A*11:01; [1]): 147 nM
- Kd (HLA-A*31:01; [1]): 8070 nM
- Kd (HLA-A*33:01; [1]): 1320 nM
- Kd (HLA-A*68:01; [1]): 1.27 nM

Sequence: ISQFSYKELY
- Kd (HLA-A*03:01; [1]): 5720 nM
- Kd (HLA-A*11:01; [1]): 1250 nM
- Kd (HLA-A*31:01; [1]): 9580 nM
- Kd (HLA-A*33:01; [1]): ≥ 46800 nM
- Kd (HLA-A*68:01; [1]): 7760 nM

Sequence: VTSSGTIYK
- Kd (HLA-A*03:01; [6]): 8.08 nM
- Kd (HLA-A*11:01; [6]): 0.595 nM
- Kd (HLA-A*31:01; [6]): 0.577 nM
- Kd (HLA-A*33:01; [6]): 10.2 nM
- Kd (HLA-A*68:01; [6]): 16.8 nM

Sequence: CTLPPLRFR
- Kd (HLA-A*31:01; [7]): ≥ 77900 nM
- Kd (HLA-A*33:01; [7]): 4.13 nM

Sequence: MSYTMCSGK
- Kd (HLA-A*03:01; [2]): 3.04 nM
- Kd (HLA-A*68:01; [2]): 5.87 nM

Sequence: AINVLRGFR
- Kd (HLA-A*31:01; [4]): 3.72 nM

Sequence: MISRMLINR
- Kd (HLA-A*11:01; [4]): 258 nM
- Kd (HLA-A*31:01; [4]): 4.37 nM
- Kd (HLA-A*33:01; [4]): 9.7 nM
- Kd (HLA-A*68:01; [4]): 22.7 nM

Sequence: ALFLEEMLR
- Kd (HLA-A*03:01; [4]): 304 nM

Sequence: KAIKILTGFR
- Kd (HLA-A*31:01; [2]): 7.75 nM

Sequence: RTAIHSLYGR
- Kd (HLA-A*11:01; [5]): 142 nM

Sequence: TALAFHLTTR
- Kd (HLA-A*31:01; [7]): ≥ 39800 nM
- Kd (HLA-A*68:01; [7]): 101 nM

Sequence: RKTFVELMRR
- Kd (HLA-A*31:01; [7]): 51.2 nM

Sequence: CVYNMMGKR
- Kd (HLA-A*03:01; [2]): 63.4 nM
- Kd (HLA-A*31:01; [2]): 137 nM
- Kd (HLA-A*68:01; [2]): 117 nM

Sequence: CTLPPLRYR
- Kd (HLA-A*31:01; [4]): 2.9 nM
- Kd (HLA-A*33:01; [4]): 12.1 nM

Sequence: DTSECPNERR
- Kd (HLA-A*68:01; [2]): 124 nM

Sequence: IFLRKLTSR
- Kd (HLA-A*31:01; [2]): 39 nM
- Kd (HLA-A*33:01; [2]): 108 nM

Sequence: ESALNDTWK
- Kd (HLA-A*68:01; [4]): 90.5 nM

Sequence: FFLSGRGLGK
- Kd (HLA-A*03:01; [8]): 12 nM

Sequence: KLKPRWLDAR
- Kd (HLA-A*31:01; [4]): 1.39 nM

Sequence: LLNRFTMTHR
- Kd (HLA-A*31:01; [9]): 15.2 nM

Sequence: VTVASAAQR
- Kd (HLA-A*68:01; [7]): 48.7 nM

Sequence: GLYGNGVVTK
- Kd (HLA-A*03:01; [9]): 3.65 nM

Sequence: GVCGIRSTTR
- Kd (HLA-A*31:01; [9]): 27.2 nM

Sequence: NWLARVGRER
- Kd (HLA-A*33:01; [4]): 242 nM

Sequence: RVSTVSQLAK
- Kd (HLA-A*03:01; [8]): 6.04 nM
- Kd (HLA-A*11:01; [8]): 40.3 nM

Sequence: NMLNIMNRRK
- Kd (HLA-A*03:01; source organism: Dengue virus 1 Singapore/S275/1990): 181 nM

Sequence: SISNITTATR
- Kd (HLA-A*31:01; [2]): 626 nM
- Kd (HLA-A*33:01; [2]): 10.6 nM
- Kd (HLA-A*68:01; [2]): 13.6 nM

Sequence: ENMEVEIWTR
- Kd (HLA-A*33:01; [2]): 106 nM

Sequence: MWQLMYFHR
- Kd (HLA-A*31:01; [7]): ≥ 24400 nM
- Kd (HLA-A*33:01; [7]): 1.43 nM

Sequence: LAILFEEVMR
- Kd (HLA-A*68:01; [9]): 29.7 nM
